Like-named read-outs stand apart in the source and are kept apart here.
Tests used:
Tn10 transposase [1] = test: cross-linking
Tn10 transposase [2] = test: cross-linking; remark: listed apart in the source
[3] = target: folded Tn10 transpososome (UniProt P0A6X7); test: native gel or EMSA
[4] = target: pre-unfolded Tn10 transpososome; test: native gel or EMSA

UniProt P0A6X7, sequence (P0A6X7 whole entry, looked up): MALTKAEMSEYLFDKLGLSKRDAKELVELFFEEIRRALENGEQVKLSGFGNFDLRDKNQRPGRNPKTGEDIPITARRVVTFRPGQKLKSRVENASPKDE

Molecule	stoichiometry N (Tn10 transposase [1])	stoichiometry N (Tn10 transposase [2])	percent of transpososome converted to an H-NS form at 6 nM H-NS [3]	Kd [4]	percent of transpososome converted to an H-NS-bound form [4]
Tn10 transposase (enzyme)	2	2			
H-NS (histone-like nucleoid-structuring protein), wild type (natural protein) MSEALKILNNIRTLRAQARECTLETLEEMLEKLEVVVNERREEESAAAAEVEERTRKLQQYREMLIADGIDPNELLNSLAAVKSGTKAKRAQRPAKYSYVDENGETKTWTGQGRTPAVIKKAMDEQGKSLDDFLIKQ			5%	0.3 nM	> 95%

— paper PMC2764420
